Experiment [1] deals with T1, human TIM-3 extracellular domain-human IgG1 Fc fusion protein (human, UniProt Q8TDQ0 22-199).
T1 construct: Made in house or bought (ACROBiosystems TM3-H5258); also called TIM-3-hFc; not shown: human IgG1 Fc
Description: ELISA. As for the experimental part:
Goat-anti-hFc (Jackson, 109-005-008) was diluted to a concentration of 1 μg/ml with PBS buffer (pH 7.4) and added to a 96-well microplate (Corning, CLS3590-100EA) at a volume of 50 μl/well, then incubated in an incubator at 37° C. for 2 hours (Or the antigen TIM-3 was directly used to coat the microplate with a concentration of 0.5 μg/ml, and then the antibody to be tested was directly added). After discarding the liquid, a blocking solution of 5% skimmed milk (skimmed milk powder purchased from Bright) diluted with PBS was added at 200 μl per well, and the microplate was incubated for 2.5 hours at 37° C. or overnight (16-18 hours) at 4° C. for blocking. The blocking solution was discarded, and the microplate was washed 5 times with PBST buffer (PBS with pH 7.4 containing 0.05% tween-20), then 50 μl/well of 0.5 μg/ml TIM-3-hFc (Example 1) was added and incubated for 2 hours in a 37° C. incubator. After incubation, the microplate was washed 6 times with PB ST. 50 μl/well of supernatant (containing testing antibody) or different concentrations of the antibody to be tested was added, and the microplate was incubated at 37° C. for 2 hours and washed 5 times with PBST. 50 μl/well of 1:2500 diluted HRP-labeled secondary antibody (Jackson Immuno Research, 115-035-003) was added to the microplate, incubating at 37° C. for 1 hour. After washing the microplate 5 times with PBST, 50 μl/well TMB chromogenic substrate (KPL, 52-00-03) was added to the microplate, followed by incubating at room temperature for 10-15 min.
(§1) The above-mentioned TIM-3 and PD-1 bispecific antibodies of the present invention were optimized and designed using the methods of Example 2 and Example 5, and their affinity for TIM-3 and PD-1 were tested respectively.
For orientation: ELISA stands for enzyme-linked immunosorbent assay.

Experiment [2] has as its target T2, human PD-1 extracellular domain protein expressed in Example 1 (tag not stated) (human, UniProt Q15116 25-170).
T2 construct: extracellular domain; also called PD-1 protein; not shown: human IgG1 Fc or his tag
Kind of experiment: ELISA, PD-1 coated. As for the experimental part: PD-1 expressed in Example 1 was diluted to a concentration of 1 μg/ml with PBS buffer, pH 7.4, and added to a 96-well microplate (Corning, CLS3590-100EA) at 50 μl per well, thereby incubating in an incubator at 37° C. for 2 hours. After discarding the liquid, a blocking solution of 5% skimmed milk (Shanghai Shenggong Biological Engineering Co., Ltd., A600669-0250) diluted with PBS was added at 200 μl per well, followed by incubating at 37° C. for 3 hours or 4° C. overnight (16-18 hours)) for blocking. Subsequently, the blocking solution was discarded, and the microplate was washed 5 times with PBST buffer (pH 7.4 PBS containing 0.05% tween-20). […] Subsequently, the microplate was washed 5 times with PBST, then 50 μl/well of 1:2500 diluted HRP-labeled secondary antibody (Jackson Immuno Research, 115-035-003) was added, thereby incubating at 37° C. for 1 hour. After washing the microplate 5 times with PBST, 50 μl/well TMB chromogenic substrate (KPL, 52-00-03) was added, then incubated at room temperature for 5-10 min. Finally, 50 μl/well of 1M H₂SO₄ was added to stop the reaction. […] Go microplate reader (ThermoFisher, 51119200) was used to read the absorption value at 450 nm and the EC50 based on the OD value was calculated.
as §1

For experiment [3], the target named is T1, human TIM-3 extracellular domain-human …. Kind of experiment: ELISA; PBS, 37°C 7 days.
Experiment [4] has as its target T2, human PD-1 extracellular domain protein …. Kind of experiment: ELISA; PBS, 37°C 7 days.
The target of experiment [5] is T1, human TIM-3 extracellular domain-human …. Description: ELISA; pH 5.5, 37°C 5 days.
Experiment [6] addresses T2, human PD-1 extracellular domain protein …. Description: ELISA; pH 5.5, 37°C 5 days.
For experiment [7], the target named is T1, human TIM-3 extracellular domain-human …. Description: ELISA; pH 5.5, 40°C 5 days.
Experiment [8] addresses T2, human PD-1 extracellular domain protein …. Description: ELISA; pH 5.5, 40°C 5 days.
The target in experiment [9] is T1, human TIM-3 extracellular domain-human …. Kind of experiment: ELISA; pH 5.5, 40°C 0 day (-80°C).
Experiment [10] deals with T2, human PD-1 extracellular domain protein …. Kind of experiment: ELISA; pH 5.5, 40°C 0 day (-80°C).
Experiment [11] has as its target T1, human TIM-3 extracellular domain-human …. Description: ELISA; PBS, 37°C 7 days, against 0 day.
Experiment [12] has as its target T2, human PD-1 extracellular domain protein …. Kind of experiment: ELISA; PBS, 37°C 7 days, against 0 day.
The target of experiment [13] is T1, human TIM-3 extracellular domain-human …. Kind of experiment: ELISA; PBS, 37°C 14 days, against 0 day.
The target of experiment [14] is T2, human PD-1 extracellular domain protein …. Description: ELISA; PBS, 37°C 14 days, against 0 day.
The target in experiment [15] is T1, human TIM-3 extracellular domain-human …. Kind of experiment: ELISA, EC50 of bispecific over EC50 of the monoclonal control.
Experiment [16] has as its target T3, TIM-3-hFc (Acro biosystems, 22-142) (human, UniProt Q8TDQ0 22-142).
T3 construct: Bought; not shown: human Fc (hFc)
Kind of experiment: double-sandwich ELISA: TIM-3-hFc coated, LB141 titrated, detected with PD-1-his and anti-his-HRP.

B1: bispecific antibody LB141 (bispecific antibody, human IgG4 S228P, kappa)
light: EIVLTQSPATLSLSPGERATLSCRASKGVSTSGYSYLHWYQQKPGQAPRLLIYLASYLESGVPARFSGSGSGTDFTLTISSLEPEDFAVYYCQHSRDLPLTFGGGTKVEIKRTVAAPSVFIFPPSDEQLKSGTASVVCLLNNFYPREAKVQWKVDNALQSGNSQESVTEQDSKDSTYSLSSTLTLSKADYEKHKVYACEVTHQGLSSPVTKSFNRGEC
heavy: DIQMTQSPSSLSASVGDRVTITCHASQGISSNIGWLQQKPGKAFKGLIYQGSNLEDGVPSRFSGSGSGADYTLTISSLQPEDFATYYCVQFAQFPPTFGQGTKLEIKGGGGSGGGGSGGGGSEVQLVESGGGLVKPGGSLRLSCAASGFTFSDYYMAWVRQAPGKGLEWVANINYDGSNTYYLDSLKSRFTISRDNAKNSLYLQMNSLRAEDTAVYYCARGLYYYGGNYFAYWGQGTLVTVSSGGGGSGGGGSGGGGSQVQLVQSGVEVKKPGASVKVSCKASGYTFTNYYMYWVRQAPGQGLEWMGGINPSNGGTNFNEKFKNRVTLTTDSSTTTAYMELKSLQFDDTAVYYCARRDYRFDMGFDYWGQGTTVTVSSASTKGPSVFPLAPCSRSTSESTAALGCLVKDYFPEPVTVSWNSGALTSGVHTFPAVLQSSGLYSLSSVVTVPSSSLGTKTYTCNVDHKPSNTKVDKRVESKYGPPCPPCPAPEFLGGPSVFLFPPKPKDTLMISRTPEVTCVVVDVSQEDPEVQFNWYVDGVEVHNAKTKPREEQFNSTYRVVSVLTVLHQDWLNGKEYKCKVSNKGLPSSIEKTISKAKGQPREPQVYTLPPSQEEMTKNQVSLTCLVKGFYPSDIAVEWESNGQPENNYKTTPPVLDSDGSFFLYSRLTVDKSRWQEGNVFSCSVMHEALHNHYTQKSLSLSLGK
notes: ab6VL-(G4S)3-ab6VH-(G4S)3-PemVH-hIgG4 with PemVL-κ
Turning to B1, the EC50 (commonly the concentration needed to bring the measured effect to its halfway point) came to 0.081 nM in experiment [1]; 0.052 nM in [2]; 0.325 nM in experiment [3]; 0.339 nM in experiment [4]; 0.334 nM in experiment [5]; 0.217 nM in experiment [6]. The EC50 in experiment [7] turned out to be 0.341 nM; in experiment [8], 0.2 nM; in [9], 0.36 nM; in experiment [10], 0.181 nM; in [16], 0.931 nM. Also, the “Fold change of EC50” value in [11] amounted to 1.28 ratio; in [12] it was 1.16 ratio; in experiment [13], 2.71 ratio; in [14], 1.37 ratio. For the same molecule, the “Multiple of EC50 variation” value in experiment [15] worked out at 0.83 ratio.

These data come from US20210269521A1 (L AND L BIOPHARMA, published 2021).
